Measurements as given in patent publication US20260063625A1, “COMPOSITIONS FOR AND METHODS OF DETECTING FOOD TOXINS” (priority 2022, published 2026).

Tests used:
[1] = format: binding; conditions: 1.1 μM Sxph, 0-20 μM STX
[2] = Fluorescence polarization (FP) binding to fluorescein labeled STX; conditions: […]G = RT ln (KdSxph mutant/KdSxph); T = 298K
Procedure: […]; Measurements were performed at 25° C. on a Synergy H1 microplate reader (BioTek) using the polarization filter setting (excitation 485 nm, emission 528 nm). […]. The dissociation constants were calculated using GraphPad Prism by fitting fluorescence millipolarization (mP=P·10^−3, where P is polarization) as a function of Sxph concentration using the equation: P={(Pbound−Pfree) [Sxph]/(Kd+[Sxph])}+Pfree, where P is the polarization measured at a given Sxph concentration, Pfree is the […], and Pbound is the maximum polarization of Sxph bound by F-STX (Rossi and Taylor, Hansen et al.).

[3] = Isothermal titration calorimetry (ITC) of STX into Sxph; format: binding; conditions: 25° C.
Procedure: ITC measurements were performed at 25° C. using a MicroCal PEAQ-ITC calorimeter (Malvern Panalytical). […]. This STX stock was diluted with the SEC buffer to prepare 100 μM or 300 μM STX solutions having a final buffer composition of 135 mM NaCl, 9 mM HEPES, pH 7.4. […]. The calorimetric experiment settings were: reference power, 5 μcal/s; spacing between injections, 150 s; stir speed 750 rpm; and feedback mode, high. Data were analyzed using MicroCal PEAQ-ITC Analysis Software (Malvern Panalytical) using a single binding site model. The heat of dilution from titrations of 100 μM STX in 135 mM NaCl, 9 mM HEPES, pH 7.4 into 135 mM NaCl, 9 mM HEPES, pH 7.4 was subtracted from each experiment to correct the baseline.

B1: D785N: RcSxph mutant D785N (protein)
chain: MAPTFQTALFFTIISLSFAAPNAKQVRWCAISDLEQKKCNDLVGSCNVPDITLVCVLRSSTEDCMTAIKDGQADAMFLDSGEVYEASKDPYNLKPIIAEPYSSNRDLQKCLKERQQALAKKMIGHYIPQCDEKGNYQPQQCHGSTGHCWCVNAMGEKISGTNTPPGQTRATCERHELPKCLKERQVALGGDEKVLGRFVPQCDEKGNYEPQQFHGSTGYSWCVNAIGEEIAGTKTPPGKIPATCQKHDLVTTCHYAVAMVKKSSAFQFNQLKGKRSCHSGVSKTDGWKALVTVLVEKKLLSWDGPAKESIQRAMSKFFSVSCIPGATQTNLCKQCKGEEGKNCKNSHDEPYYGNYGAFRCLKEDMGDVAFLRSTALSDEHSEVYELLCPDNTRKPLNKYKECNLGTVPAGTVVTRKISDKTEDINNFLMEAQKRQCKLFSSAHGKDLMFDDSTLQLALLSSEVDAFLYLGVKLFHAMKALTGDAHLPSKNKVRWCTINKLEKMKCDDWSAVSGGAIACTEASCPKGCVKQILKGEADAVKLEVQYMYEALMCGLLPAVEEYHNKDDFGPCKTPGSPYTDFGTLRAVALVKKSNKDINWNNIKGKKSCHTGVGDIAGWVIPVSLIRRQNDNSDIDSFFGESCAPGSDTKSNLCKLCIGDPKNSAANTKCSLSDKEAYYGNQGAFRCLVEKGDVAFVPHTVVFENTDGKNPAVWAKNLKSEDFELLCLDGSRAPVSNYKSCKLSGIPPPAIVTREESISDVVRIVANQQSLYGRKGFEKDMFQLFSSNKGNNLLFNDNTQCLITFNRQPKDIMEDYFGKPYYTTVYGASRSAMSSELISACTIKHC
DTm ([…]Tm=TmSxph+20 μM toxin−TmSxph), STX [1]: DTm increases relative to wild-type
[…]G (kcal mol^−1) relative to wild-type RcSxph [2]: -0.30 kcal/mol

B2: F561A: RcSxph mutant F561A (protein)
chain: MAPTFQTALFFTIISLSFAAPNAKQVRWCAISDLEQKKCNDLVGSCNVPDITLVCVLRSSTEDCMTAIKDGQADAMFLDSGEVYEASKDPYNLKPIIAEPYSSNRDLQKCLKERQQALAKKMIGHYIPQCDEKGNYQPQQCHGSTGHCWCVNAMGEKISGTNTPPGQTRATCERHELPKCLKERQVALGGDEKVLGRFVPQCDEKGNYEPQQFHGSTGYSWCVNAIGEEIAGTKTPPGKIPATCQKHDLVTTCHYAVAMVKKSSAFQFNQLKGKRSCHSGVSKTDGWKALVTVLVEKKLLSWDGPAKESIQRAMSKFFSVSCIPGATQTNLCKQCKGEEGKNCKNSHDEPYYGNYGAFRCLKEDMGDVAFLRSTALSDEHSEVYELLCPDNTRKPLNKYKECNLGTVPAGTVVTRKISDKTEDINNFLMEAQKRQCKLFSSAHGKDLMFDDSTLQLALLSSEVDAFLYLGVKLFHAMKALTGDAHLPSKNKVRWCTINKLEKMKCDDWSAVSGGAIACTEASCPKGCVKQILKGEADAVKLEVQYMYEALMCGLLPAVEEYHNKDDFGPCKTPGSPYTDAGTLRAVALVKKSNKDINWNNIKGKKSCHTGVGDIAGWVIPVSLIRRQNDNSDIDSFFGESCAPGSDTKSNLCKLCIGDPKNSAANTKCSLSDKEAYYGNQGAFRCLVEKGDVAFVPHTVVFENTDGKNPAVWAKNLKSEDFELLCLDGSRAPVSNYKSCKLSGIPPPAIVTREESISDVVRIVANQQSLYGRKGFEKDMFQLFSSNKGNNLLFNDNTQCLITFDRQPKDIMEDYFGKPYYTTVYGASRSAMSSELISACTIKHC
[…]G [3]: -10.8 ± 0.1 kcal/mol
[…]H (kcal mol^−1), binding enthalpy [3]: -12.7 ± 0.2 kcal/mol
[…]S (cal mol^−1 K^−1) [3]: −6.6 ± 0.9 cal mol^−1 K^−1
[…]G (kcal mol^−1) relative to wild-type RcSxph [2]: 0.48 kcal/mol

B3: D794A: RcSxph mutant D794A (protein)
chain: MAPTFQTALFFTIISLSFAAPNAKQVRWCAISDLEQKKCNDLVGSCNVPDITLVCVLRSSTEDCMTAIKDGQADAMFLDSGEVYEASKDPYNLKPIIAEPYSSNRDLQKCLKERQQALAKKMIGHYIPQCDEKGNYQPQQCHGSTGHCWCVNAMGEKISGTNTPPGQTRATCERHELPKCLKERQVALGGDEKVLGRFVPQCDEKGNYEPQQFHGSTGYSWCVNAIGEEIAGTKTPPGKIPATCQKHDLVTTCHYAVAMVKKSSAFQFNQLKGKRSCHSGVSKTDGWKALVTVLVEKKLLSWDGPAKESIQRAMSKFFSVSCIPGATQTNLCKQCKGEEGKNCKNSHDEPYYGNYGAFRCLKEDMGDVAFLRSTALSDEHSEVYELLCPDNTRKPLNKYKECNLGTVPAGTVVTRKISDKTEDINNFLMEAQKRQCKLFSSAHGKDLMFDDSTLQLALLSSEVDAFLYLGVKLFHAMKALTGDAHLPSKNKVRWCTINKLEKMKCDDWSAVSGGAIACTEASCPKGCVKQILKGEADAVKLEVQYMYEALMCGLLPAVEEYHNKDDFGPCKTPGSPYTDFGTLRAVALVKKSNKDINWNNIKGKKSCHTGVGDIAGWVIPVSLIRRQNDNSDIDSFFGESCAPGSDTKSNLCKLCIGDPKNSAANTKCSLSDKEAYYGNQGAFRCLVEKGDVAFVPHTVVFENTDGKNPAVWAKNLKSEDFELLCLDGSRAPVSNYKSCKLSGIPPPAIVTREESISDVVRIVANQQSLYGRKGFEKDMFQLFSSNKGNNLLFNDNTQCLITFDRQPKDIMEAYFGKPYYTTVYGASRSAMSSELISACTIKHC
DTm ([…]Tm=TmSxph+20 μM toxin−TmSxph), STX [1]: complete loss of the thermal shift
[…]G (kcal mol^−1) relative to wild-type RcSxph [2]: 4.43 kcal/mol

B4: D794E: RcSxph mutant D794E (protein)
chain: MAPTFQTALFFTIISLSFAAPNAKQVRWCAISDLEQKKCNDLVGSCNVPDITLVCVLRSSTEDCMTAIKDGQADAMFLDSGEVYEASKDPYNLKPIIAEPYSSNRDLQKCLKERQQALAKKMIGHYIPQCDEKGNYQPQQCHGSTGHCWCVNAMGEKISGTNTPPGQTRATCERHELPKCLKERQVALGGDEKVLGRFVPQCDEKGNYEPQQFHGSTGYSWCVNAIGEEIAGTKTPPGKIPATCQKHDLVTTCHYAVAMVKKSSAFQFNQLKGKRSCHSGVSKTDGWKALVTVLVEKKLLSWDGPAKESIQRAMSKFFSVSCIPGATQTNLCKQCKGEEGKNCKNSHDEPYYGNYGAFRCLKEDMGDVAFLRSTALSDEHSEVYELLCPDNTRKPLNKYKECNLGTVPAGTVVTRKISDKTEDINNFLMEAQKRQCKLFSSAHGKDLMFDDSTLQLALLSSEVDAFLYLGVKLFHAMKALTGDAHLPSKNKVRWCTINKLEKMKCDDWSAVSGGAIACTEASCPKGCVKQILKGEADAVKLEVQYMYEALMCGLLPAVEEYHNKDDFGPCKTPGSPYTDFGTLRAVALVKKSNKDINWNNIKGKKSCHTGVGDIAGWVIPVSLIRRQNDNSDIDSFFGESCAPGSDTKSNLCKLCIGDPKNSAANTKCSLSDKEAYYGNQGAFRCLVEKGDVAFVPHTVVFENTDGKNPAVWAKNLKSEDFELLCLDGSRAPVSNYKSCKLSGIPPPAIVTREESISDVVRIVANQQSLYGRKGFEKDMFQLFSSNKGNNLLFNDNTQCLITFDRQPKDIMEEYFGKPYYTTVYGASRSAMSSELISACTIKHC
[…]G [3]: -8.9 ± 0.1 kcal/mol
[…]H (kcal mol^−1), binding enthalpy [3]: -11.8 ± 0.0 kcal/mol
[…]S (cal mol^−1 K^−1) [3]: −8.9 ± 0.1 cal mol^−1 K^−1
[…]G (kcal mol^−1) relative to wild-type RcSxph [2]: 2.94 kcal/mol

B5: Y558A: RcSxph mutant, alanine for tyrosine at position 558 (protein)
chain: MAPTFQTALFFTIISLSFAAPNAKQVRWCAISDLEQKKCNDLVGSCNVPDITLVCVLRSSTEDCMTAIKDGQADAMFLDSGEVYEASKDPYNLKPIIAEPYSSNRDLQKCLKERQQALAKKMIGHYIPQCDEKGNYQPQQCHGSTGHCWCVNAMGEKISGTNTPPGQTRATCERHELPKCLKERQVALGGDEKVLGRFVPQCDEKGNYEPQQFHGSTGYSWCVNAIGEEIAGTKTPPGKIPATCQKHDLVTTCHYAVAMVKKSSAFQFNQLKGKRSCHSGVSKTDGWKALVTVLVEKKLLSWDGPAKESIQRAMSKFFSVSCIPGATQTNLCKQCKGEEGKNCKNSHDEPYYGNYGAFRCLKEDMGDVAFLRSTALSDEHSEVYELLCPDNTRKPLNKYKECNLGTVPAGTVVTRKISDKTEDINNFLMEAQKRQCKLFSSAHGKDLMFDDSTLQLALLSSEVDAFLYLGVKLFHAMKALTGDAHLPSKNKVRWCTINKLEKMKCDDWSAVSGGAIACTEASCPKGCVKQILKGEADAVKLEVQYMYEALMCGLLPAVEEYHNKDDFGPCKTPGSPATDFGTLRAVALVKKSNKDINWNNIKGKKSCHTGVGDIAGWVIPVSLIRRQNDNSDIDSFFGESCAPGSDTKSNLCKLCIGDPKNSAANTKCSLSDKEAYYGNQGAFRCLVEKGDVAFVPHTVVFENTDGKNPAVWAKNLKSEDFELLCLDGSRAPVSNYKSCKLSGIPPPAIVTREESISDVVRIVANQQSLYGRKGFEKDMFQLFSSNKGNNLLFNDNTQCLITFDRQPKDIMEDYFGKPYYTTVYGASRSAMSSELISACTIKHC
[…]G [3]: -12.2 ± 0.2 kcal/mol
[…]H (kcal mol^−1), binding enthalpy [3]: -15.3 ± 0.0 kcal/mol
[…]S (cal mol^−1 K^−1) [3]: −11.1 ± 1.1 cal mol^−1 K^−1
[…]G (kcal mol^−1) relative to wild-type RcSxph [2]: -1.00 kcal/mol
